Results as given in publication PMC3438747, “Role of Motif III in Catalysis by Acetyl-CoA Synthetase” (Archaea, 2012).

Tests used:
[1] = biological target: T1, acetyl-CoA synthetase (Acs1Mt) (Methanothermobacter thermautotrophicus, UniProt O26319); assay: inhibition of purified enzyme, hydroxamate assay; assay type: biochemical
T1 construct: gene MTH_217
T1 sequence (O26319 1-558): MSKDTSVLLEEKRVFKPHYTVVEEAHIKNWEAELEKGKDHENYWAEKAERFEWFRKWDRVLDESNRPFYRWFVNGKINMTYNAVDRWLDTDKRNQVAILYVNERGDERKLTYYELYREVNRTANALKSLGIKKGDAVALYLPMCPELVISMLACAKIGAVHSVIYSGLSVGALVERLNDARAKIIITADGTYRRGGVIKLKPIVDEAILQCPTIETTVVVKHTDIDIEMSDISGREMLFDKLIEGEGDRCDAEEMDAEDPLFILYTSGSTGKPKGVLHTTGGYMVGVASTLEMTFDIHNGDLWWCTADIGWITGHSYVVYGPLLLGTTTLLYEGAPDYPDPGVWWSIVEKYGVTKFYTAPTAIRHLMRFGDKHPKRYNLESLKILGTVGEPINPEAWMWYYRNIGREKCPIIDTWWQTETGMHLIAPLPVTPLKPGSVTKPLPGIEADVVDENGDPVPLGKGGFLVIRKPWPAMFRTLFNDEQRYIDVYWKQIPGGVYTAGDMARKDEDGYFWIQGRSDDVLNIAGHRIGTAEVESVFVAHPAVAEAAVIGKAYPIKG

Acs1Mt = biological target: T2, Acs1Mt (Methanothermobacter thermautotrophicus, UniProt Q2XNL6); assay: hydroxamate assay, reciprocal plot of velocity vs inhibitor; assay type: biochemical; details: all three substrates (acetate, MgATP, CoA) saturating; pH 7.5; 65 °C
T2 construct: gene acs1; recombinant in E. coli Rosetta Blue (DE3); Q-sepharose and phenyl sepharose purification; dimer; motif III 498-YTAGD-502
T2 sequence (Q2XNL6 1-634): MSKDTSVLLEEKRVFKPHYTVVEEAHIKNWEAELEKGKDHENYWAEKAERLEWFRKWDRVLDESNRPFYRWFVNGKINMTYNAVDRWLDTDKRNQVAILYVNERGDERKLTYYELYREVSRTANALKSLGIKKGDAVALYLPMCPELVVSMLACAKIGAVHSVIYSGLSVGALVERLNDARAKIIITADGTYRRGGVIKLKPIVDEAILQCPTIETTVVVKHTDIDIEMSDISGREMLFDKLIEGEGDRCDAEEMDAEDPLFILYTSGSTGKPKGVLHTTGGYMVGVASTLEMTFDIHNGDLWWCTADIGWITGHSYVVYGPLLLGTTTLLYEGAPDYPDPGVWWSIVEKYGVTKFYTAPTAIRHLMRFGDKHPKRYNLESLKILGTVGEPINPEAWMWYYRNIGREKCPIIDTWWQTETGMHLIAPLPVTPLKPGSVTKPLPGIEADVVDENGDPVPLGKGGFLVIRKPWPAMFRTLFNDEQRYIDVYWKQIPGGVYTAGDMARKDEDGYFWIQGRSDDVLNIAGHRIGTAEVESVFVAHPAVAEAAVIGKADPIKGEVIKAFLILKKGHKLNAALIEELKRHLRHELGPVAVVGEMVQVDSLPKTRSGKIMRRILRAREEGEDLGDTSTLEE

[2] = biological target: Acs1Mt Ala500Thr variant (Methanothermobacter thermautotrophicus); assay: SEC; Superose 12 gel filtration column, 50 mM Tris pH 7.5 with 150 mM KCl, calibrated with mass standards; subunit composition (dimer)
[3] = biological target: Acs1Mt Asp502Ala variant (Methanothermobacter thermautotrophicus); assay: as above
[4] = biological target: Acs1Mt Asp502Asn variant (Methanothermobacter thermautotrophicus); assay: as above
[5] = biological target: Acs1Mt Asp502Glu variant (Methanothermobacter thermautotrophicus); assay: as above
[6] = biological target: Acs1Mt Gly501Ala variant (Methanothermobacter thermautotrophicus); assay: as above
[7] = biological target: Acs1Mt Thr499Ala variant (Methanothermobacter thermautotrophicus); assay: as above
[8] = biological target: Acs1Mt Tyr498Ala variant (Methanothermobacter thermautotrophicus); assay: as above
[9] = biological target: Acs1Mt Tyr498Phe variant (Methanothermobacter thermautotrophicus); assay: as above
[10] = biological target: Methanothermobacter thermautotrophicus Acs1 (AMP-forming acetyl-CoA synthetase), unaltered (Methanothermobacter thermautotrophicus); assay: as above
purified protein = substrate: CC(=O)O; assay: purified protein; details: Mg2+
[11] = substrate: Nc1ncnc2c1ncn2[C@@H]1O[C@H](COP(=O)(O)OP(=O)(O)OP(=O)(O)O)[C@@H](O)[C@H]1O; assay: Michaelis-Menten kinetics of purified recombinant enzyme, hydroxamate assay (Km); assay type: biochemical, Methanothermobacter thermautotrophicus; details: Mg2+ active site; Asp502 interacts with the OH groups of the ribose moiety (model)
[12] = substrate: CC(C)(COP(=O)(O)OP(=O)(O)OC[C@H]1O[C@@H](n2cnc3c(N)ncnc32)[C@H](O)[C@@H]1OP(=O)(O)O)[C@@H](O)C(=O)NCCC(=O)NCCS; assay: as above; assay type: biochemical, Methanothermobacter thermautotrophicus; details: Mg2+

Work on O=C[C@H](O)[C@H](O)[C@H](O)CO [ribose] yielded a Ki [1] of 53 mM.

OC1OC[C@@H](O)[C@@H](O)[C@H]1O (some centres unmarked) [ribose] gave a Ki (Acs1Mt) of 53 mM.

Acs1Mt Ala500Thr variant (enzyme) showed a stoichiometry N [2] of 2.

Acs1Mt Asp502Ala variant (enzyme) showed a stoichiometry N [3] of 2.

Acs1Mt Asp502Asn variant (enzyme) showed a stoichiometry N [4] of 2.

Acs1Mt Asp502Glu variant (enzyme) was tested, and the stoichiometry N [5] was 2.

In the case of Acs1Mt Gly501Ala variant (enzyme), the stoichiometry N [6] is reported as 2.

Molecule Acs1Mt Thr499Ala variant (enzyme) has a stoichiometry N [7] of 2.

For Acs1Mt Tyr498Ala variant (enzyme), the stoichiometry N [8] was 2.

Molecule Acs1Mt Tyr498Phe variant (enzyme) has a stoichiometry N [9] of 2.

With “Methanothermobacter thermautotrophicus Acs1 (AMP-forming acetyl-CoA synthetase), unaltered (enzyme)” the stoichiometry N [10] was 2.

B1: acetyl-CoA synthetase (Acs1Mt) (Methanothermobacter thermautotrophicus str. Delta H) (protein)
chain: MSKDTSVLLEEKRVFKPHYTVVEEAHIKNWEAELEKGKDHENYWAEKAERFEWFRKWDRVLDESNRPFYRWFVNGKINMTYNAVDRWLDTDKRNQVAILYVNERGDERKLTYYELYREVNRTANALKSLGIKKGDAVALYLPMCPELVISMLACAKIGAVHSVIYSGLSVGALVERLNDARAKIIITADGTYRRGGVIKLKPIVDEAILQCPTIETTVVVKHTDIDIEMSDISGREMLFDKLIEGEGDRCDAEEMDAEDPLFILYTSGSTGKPKGVLHTTGGYMVGVASTLEMTFDIHNGDLWWCTADIGWITGHSYVVYGPLLLGTTTLLYEGAPDYPDPGVWWSIVEKYGVTKFYTAPTAIRHLMRFGDKHPKRYNLESLKILGTVGEPINPEAWMWYYRNIGREKCPIIDTWWQTETGMHLIAPLPVTPLKPGSVTKPLPGIEADVVDENGDPVPLGKGGFLVIRKPWPAMFRTLFNDEQRYIDVYWKQIPGGVYTAGDMARKDEDGYFWIQGRSDDVLNIAGHRIGTAEVESVFVAHPAVAEAAVIGKAYPIKG
B1 showed a Km (purified protein) of 3.5 ± 0.1 mM, a Km [11] of 3.3 ± 0.2 mM and a Km [12] of 0.19 ± 0.003 mM.
